The results in this text go back to patent US7601489.

Where two headings read alike, the source gives them in different places.

Series [1] deals with HIV-1 reverse transcriptase (heterodimer) (HIV-1) (UniProt P04585+P04585). As to conditions: 100% incorporation with Mg2+; 37 C; 50% inhibition at Mn2+:Mg2+ ratio 7e-4.
Series [2] concerns the target T1, Ty1 reverse transcriptase (wild-type) (Saccharomyces cerevisiae Ty1 retrotransposon) (UniProt Q07163).
T1 sequence: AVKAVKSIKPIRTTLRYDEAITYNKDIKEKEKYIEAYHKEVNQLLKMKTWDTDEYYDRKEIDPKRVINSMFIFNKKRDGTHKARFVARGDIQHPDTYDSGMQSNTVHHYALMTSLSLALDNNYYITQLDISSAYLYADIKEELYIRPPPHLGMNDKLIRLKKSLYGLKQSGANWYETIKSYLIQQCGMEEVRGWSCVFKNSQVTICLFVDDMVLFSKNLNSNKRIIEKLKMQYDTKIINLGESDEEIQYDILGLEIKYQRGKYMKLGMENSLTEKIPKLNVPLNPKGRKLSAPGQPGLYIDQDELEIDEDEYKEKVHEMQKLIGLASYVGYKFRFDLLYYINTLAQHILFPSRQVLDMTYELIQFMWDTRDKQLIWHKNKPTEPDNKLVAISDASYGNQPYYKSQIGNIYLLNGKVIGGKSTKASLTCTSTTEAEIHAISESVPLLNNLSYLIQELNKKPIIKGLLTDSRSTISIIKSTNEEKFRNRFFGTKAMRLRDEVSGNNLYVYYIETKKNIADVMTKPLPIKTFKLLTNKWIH
The settings on record: 22 C, 20 mM KCl, pH 7.8.

The target in series [3] is T2, Ty1 reverse transcriptase D211N D211N (Saccharomyces cerevisiae Ty1 retrotransposon) (UniProt Q07163).
T2 sequence: T1 sequence
As to conditions: 22 C, 20 mM KCl, pH 7.8.

Series [4] has as its target T3, Ty1 VLP-associated reverse transcriptase (Saccharomyces cerevisiae Ty1 retrotransposon) (UniProt Q07163).
T3 sequence: T1 sequence
The settings on record: 100% incorporation with Mg2+; 22 C; 50% inhibition at Mn2+:Mg2+ ratio 8e-3.

As for oligo(dG)12-18/poly(rC) primer-template, the activity (pmol dGTP/ug RT per 60 min) in series [1] came to 205. The activity in series [2] (kcat with Mg2+, K0.5 Mg2+ 0.13 mM) worked out at 1.61 h⁻¹; in series [2] (kcat with Mn2+, K0.5 Mn2+ 19.9 mM), 0.56 h⁻¹; in series [3] (kcat with Mg2+, K0.5 Mg2+ 6.3 mM) it was 1.6 h⁻¹; in series [3] (kcat with Mn2+, K0.5 Mn2+ 0.02 mM), 0.57 h⁻¹. Moreover, the activity (pmol dGTP/ul VLP per 60 min) in series [4] was determined as 5.
